Experimental data reported in publication PMC11111093.

Target: HA-ADAP (UniProt O15117)
Assay: co-IP; HEK293T co-transfected with HA-ADAP and Flag-RIG-I or Flag-tagged RIG-I truncations, lysates 48 h after transfection; anti-HA immunoprecipitation, anti-Flag blot

Chain of UniProt O15117 (O15117 whole entry, the tested form may be a part): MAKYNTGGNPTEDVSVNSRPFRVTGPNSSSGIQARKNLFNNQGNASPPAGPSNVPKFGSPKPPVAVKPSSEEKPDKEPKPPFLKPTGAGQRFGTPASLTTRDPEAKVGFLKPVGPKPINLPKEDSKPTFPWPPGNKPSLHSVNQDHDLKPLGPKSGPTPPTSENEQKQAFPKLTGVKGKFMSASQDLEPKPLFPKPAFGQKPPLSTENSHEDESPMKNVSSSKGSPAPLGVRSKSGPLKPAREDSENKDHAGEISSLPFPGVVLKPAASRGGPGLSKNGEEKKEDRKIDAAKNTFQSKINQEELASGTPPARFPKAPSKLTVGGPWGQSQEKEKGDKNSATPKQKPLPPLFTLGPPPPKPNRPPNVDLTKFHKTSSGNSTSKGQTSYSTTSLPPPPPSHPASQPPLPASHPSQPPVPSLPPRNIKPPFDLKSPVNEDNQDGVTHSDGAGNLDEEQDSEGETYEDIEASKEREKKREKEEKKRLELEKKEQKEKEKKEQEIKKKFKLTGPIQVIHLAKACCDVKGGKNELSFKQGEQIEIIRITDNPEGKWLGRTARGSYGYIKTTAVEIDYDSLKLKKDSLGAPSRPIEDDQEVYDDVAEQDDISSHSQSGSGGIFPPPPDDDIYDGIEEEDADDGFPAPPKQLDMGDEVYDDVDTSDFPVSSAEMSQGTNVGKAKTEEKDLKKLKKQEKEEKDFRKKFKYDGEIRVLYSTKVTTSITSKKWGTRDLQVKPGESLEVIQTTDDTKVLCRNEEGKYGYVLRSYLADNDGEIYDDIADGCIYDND

Flag-RIG-I helicase domain (aa 239-734) (from UniProt O95786 239-734) (domain or fragment)
percent decrease in binding compared to wild-type RIG-I: 60%
